In this experiment the target is T1, human FSH receptor, stably expressed on CHO K1 cells (CHO FSH-R/CRE-luc cell line) (human, UniProt P23945 18-695).
T1 sequence (looked up): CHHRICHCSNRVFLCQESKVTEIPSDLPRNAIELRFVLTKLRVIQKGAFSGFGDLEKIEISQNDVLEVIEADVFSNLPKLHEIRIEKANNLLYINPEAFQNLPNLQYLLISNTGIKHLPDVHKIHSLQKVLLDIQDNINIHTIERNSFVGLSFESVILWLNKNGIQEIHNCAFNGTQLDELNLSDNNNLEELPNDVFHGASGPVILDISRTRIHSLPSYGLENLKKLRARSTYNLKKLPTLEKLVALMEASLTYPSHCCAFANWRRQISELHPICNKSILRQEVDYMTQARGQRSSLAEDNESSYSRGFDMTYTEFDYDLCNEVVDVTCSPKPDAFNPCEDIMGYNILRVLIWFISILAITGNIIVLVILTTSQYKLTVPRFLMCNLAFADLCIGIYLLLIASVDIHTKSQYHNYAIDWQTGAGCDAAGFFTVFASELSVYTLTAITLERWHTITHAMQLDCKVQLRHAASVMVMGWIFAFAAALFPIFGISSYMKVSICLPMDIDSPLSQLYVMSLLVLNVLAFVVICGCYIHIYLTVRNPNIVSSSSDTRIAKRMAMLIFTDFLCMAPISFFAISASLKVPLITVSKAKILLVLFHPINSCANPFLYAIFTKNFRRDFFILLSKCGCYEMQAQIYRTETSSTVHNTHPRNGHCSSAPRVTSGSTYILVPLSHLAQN
The experiment in a line: cell-based or functional assay.

B1: FSH1208: variant form of FSH containing two N-linked glycosylations at the N-terminus of the alpha subunit (ligand)
chain 1: not shown
chain 2: CELTNITIAIEKEECRFCISINTTWCAGYCYTRDLVYKDPARPKIQKTCTFKELVYETVRVPGCAHHADSLYTYPVATQCHCGKCDSDSTDCTVRGLGPSYCSFGEMKE
modifications: both asparagine residues of the extension … are glycosylated
For the molecule B1, the “specific activity (in vitro bioactivity in the FSH luciferase assay over FSH content by ELISA), relative to the wildtype reference” value is ~0.33 fold of wildtype FSH.

The values are drawn from patent US20030036181A1 (MAXYGEN, published 2003).
